pKd: −log10 of the molar value.
Test system: HNRNPH1 isoform A (Homo sapiens)
Experiment: MST
Settings: 50 mM Tris pH 8.0, 300 mM KCl, 0.02% NP-40, 10% glycerol, 0.5 mg/ml heparin, 22 C; 20 nM RNA

INCA1 major eCLIP peak 50-nt RNA oligo showed a pKd of 6.12.
